Patent US20240101645A1 (HENRY M JACKSON FOUNDATION FOR THE ADVANCEMENT OF MILITARY …, published 2024)

T1: MERS-CoV spike antigens (bead panel) (MERS-CoV, UniProt K9N5Q8 18-1296)
T1 sequence: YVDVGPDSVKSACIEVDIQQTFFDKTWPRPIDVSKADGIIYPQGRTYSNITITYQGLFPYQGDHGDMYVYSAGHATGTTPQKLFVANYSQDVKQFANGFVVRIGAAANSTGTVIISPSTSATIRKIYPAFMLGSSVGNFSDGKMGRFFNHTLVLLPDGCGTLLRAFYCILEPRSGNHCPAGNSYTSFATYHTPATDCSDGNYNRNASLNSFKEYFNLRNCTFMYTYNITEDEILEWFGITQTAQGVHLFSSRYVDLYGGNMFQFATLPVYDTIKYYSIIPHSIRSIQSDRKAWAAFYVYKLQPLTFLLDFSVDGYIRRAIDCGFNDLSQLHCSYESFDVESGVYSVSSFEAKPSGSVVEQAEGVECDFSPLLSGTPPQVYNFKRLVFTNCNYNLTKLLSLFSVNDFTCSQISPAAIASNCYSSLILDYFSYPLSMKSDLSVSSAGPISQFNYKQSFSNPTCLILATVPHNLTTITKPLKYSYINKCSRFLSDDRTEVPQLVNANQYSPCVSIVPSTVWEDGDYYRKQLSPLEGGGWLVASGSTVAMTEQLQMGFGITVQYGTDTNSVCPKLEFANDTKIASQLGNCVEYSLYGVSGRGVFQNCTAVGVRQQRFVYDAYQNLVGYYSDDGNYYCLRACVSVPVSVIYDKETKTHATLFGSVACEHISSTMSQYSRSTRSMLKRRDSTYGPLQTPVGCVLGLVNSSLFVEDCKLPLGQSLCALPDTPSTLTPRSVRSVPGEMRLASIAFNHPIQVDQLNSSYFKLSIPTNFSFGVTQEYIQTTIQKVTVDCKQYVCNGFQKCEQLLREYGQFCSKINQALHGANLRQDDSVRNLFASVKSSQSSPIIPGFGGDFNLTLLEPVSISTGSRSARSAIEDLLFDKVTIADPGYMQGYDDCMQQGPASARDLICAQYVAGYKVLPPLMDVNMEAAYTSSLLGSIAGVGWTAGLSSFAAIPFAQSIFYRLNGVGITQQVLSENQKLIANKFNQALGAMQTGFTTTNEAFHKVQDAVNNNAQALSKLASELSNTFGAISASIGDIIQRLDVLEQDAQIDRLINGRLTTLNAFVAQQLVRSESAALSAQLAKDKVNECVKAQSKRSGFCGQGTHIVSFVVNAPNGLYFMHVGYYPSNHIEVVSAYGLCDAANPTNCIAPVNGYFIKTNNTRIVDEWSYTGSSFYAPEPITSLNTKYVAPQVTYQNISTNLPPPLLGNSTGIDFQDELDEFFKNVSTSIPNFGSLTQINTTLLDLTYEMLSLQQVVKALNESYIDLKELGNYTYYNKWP


How the values were obtained:
[1] = target: T1, MERS-CoV spike antigens (bead panel); test: multiplex bead assay
[2] = target: SARS-CoV-2 S on pseudovirions (Wuhan Hu-1 / IL1/2020, last 18 amino acids removed) (SARS-CoV-2, UniProt P0DTC2 14-1273); test: cell-based or functional assay

| Binder | binding result [1] | Mean IC50, pSV neutralization [2] | Mean IC80, pSV neutralization [2] |
| --- | --- | --- | --- |
| COV_1025 (antibody, V domains shown, human IgG1) VH: QVQLVESGGGVVQPGRSLRLSCAASGFTFNTYAMHWVRQAPGKGLEWVAIISYDGGNKYYADSMKGRFTISRDNSKNTLYLQMNSLRAEDTAVYYCARARTGNYYYGMDVWGQGTTVTVSS VL: not shown | no binding |  |  |
| COV_2048 (antibody, V domains shown, human IgG1) VH: QVQLQESGPGLVKPSETLSLTCTVSGGSISNTSYYWGWIRQPPGKGLEWIGSIYRSGSTYYNPSLKSRVTISIDTSKNQFTLKLSSVTAADTAVYYCARDYYGDYSAKPMEYWGQGTLVTVSS VL: QSALTQPRSVSGSPGQSVTISCTGTSSDVGGYNYVSWYQQHPGKAPKLLIYDVSKRPSGVPDRFSGSKSGNTASLTISGLQAEDEADYYCCSYAGSYVVFGGGAKLTVLG | no binding | 20.3 µg/ml | ≥ 25 µg/ml |
| COV_2193 (antibody, V domains shown, human IgG1) VH: QVQLVQSGAEVKKPGASVKVSCKVSGYTLTDLSMHWVRQTPGKGLEWMGGFDAEDGETIYAQNFQGRVTMTEDTSIDVAYMELSSLRSEDTAVYYCATGSVGPDYWGQGTLVTVSS VL: SSELTQDPAVSVALGQTVRITCQGDSLRSYYASWFQQKPGQAPVLVIYLKNDRPSGIPDRFSGSSSGNTASLTITGAQAEDEADYYCNSRDSSGNHQVFGGGTKLTVL |  | ≥ 25 µg/ml | ≥ 25 µg/ml |
| COV_1172 (antibody, V domains shown, human IgG1) VH: QVQLQESGPGLVKPSETLSLTCTVSGGSIRSYYWSWIRQPPGKGLEWIGYIYYSGSTNYSPSLKSRVTISVDTSKNQFSLKLNSVTAADTAVYYCARRGLGYCSGDSCSNAFDIWGQGTMVTVSS VL: DIQMTQSPSSLSASVGDRVTITCRASQSISSYLNWYQQKPGRAPELLIYDASSLQSGVPSGFSGSGSGTDFTLTISSLQPEDFATYYCQQSYSTPFTFGPGTKVDIKR | no binding | ≥ 25 µg/ml | ≥ 25 µg/ml |
| COV_1151 (antibody, V domains shown, human IgG1) VH: QVQVQQWGAGLLKPSETLSLTCAVYGGSFNNYYWSWIRQPPGKGLEWIGEINHSGSTNYNPSLMSRVTISVDTSKNQFSLKLTSVTAADTAVYFCARGLPVTTFFSSYYGMDVWGQGTTVTVSS VL: EIVLTQSPGTLSLSPGERATLSCRASQSVSRTYLAWYQQKPGQAPRLLIYGASSRATGIPDRFSGSGSGTDFTLTISRLEPEDFAVYYCQHYGSSPWTFGQGTKVEIRR | no binding | ≥ 25 µg/ml | ≥ 25 µg/ml |
| COV_1170 (antibody, V domains shown, human IgG1) VH: QVQLVESGGGVVQPGRSLRLSCAASGFTFSTYAMHWVRQAPGKGLEWVALISYDGSNKYYADSVKGRFTISRDNSKNTLDLQMNSLRAEDTAVYYCARSLGGYRTGFDYWGQGTLVTVSS VL: DIQLTQSPSFLSASVGDRVTITCRASQGISSYLAWYQQKPGKAPKLLIYAASTLQSGVPSRFSGSGSGTEFTLTISSLQPEDFATYYCQQLNSYPPFTFGPGTKVDIKR | no binding | 0.2 µg/ml | ≥ 25 µg/ml |
| COV_1166 (antibody, V domains shown, human IgG1) VH: EVQLVESGGGLVQPGGSLRLSCAVSGFTFRSFWMSWVRQTPGKGLEWVANIKEDGSEKYYVDSVKGRFTISRDNAKNSLYLQMNSLRAEDTAVYYCAREGRWELLGFAFDIWGQGTMVTVSS VL: not shown | no binding | ≥ 25 µg/ml | ≥ 25 µg/ml |
| COV_2143 (antibody, V domains shown, human IgG1) VH: EVQLVESGGGVVQPGRSLRLSCAASGFTFNSFAMLWVRQAPGKGLEWVALFSYDGSNKYYADSVKGRFTISRDNSKNTLYLQMNNLRAVDTAVYYCARASPYDINGYYLHRIAFDIWGQGTMVTVSS VL: QSVLMQPPSVSGAPGQRVTISCTGSSSNIGAGYDVHWYQQLPGTAPKLLMYGNSNRPSGVPDRFSGSKSGTSASLAITGLQAEDEADYYCQSYDSGLSGWVFGGGTKLTVLG | no binding | ≥ 25 µg/ml | ≥ 25 µg/ml |
| COV_2093 (antibody, V domains shown, human IgG1) VH: EVQLVESGGGLVQPGGSLRLSCAASGFMFNRFWMSWVRQAPGKGLEWVTNIKQDGSEKNYVDSVKGRFTISRDNAKNSLYLQMNSLRAEDTAVYYCARDGLYYDFRSPSPFYGMDVWGQGTTVTVSS VL: DIQMTQSPSSLSASVGDRVTITCRASQSISSYLNWYQHKSGKAPKLLIYAASRLQSGVPSRFSGSGSGTDFTLTIVSLQPEDLATYYCQQSYSTPRTFGGGTKVEIKR | no binding | ≥ 25 µg/ml | ≥ 25 µg/ml |
| COV_2100 (antibody, V domains shown, human IgG1) VH: EVQLVESGGGLVQPGGSLRLSCAASGFTFSSYDMYWVRQATGKGLEWVSAIGTAGDTYYPGSVKGRFTISRENAKNSLYLRMNSLRAGDTAVYFCARADKNTAMFFDYWGQGTLVTVSS VL: DIQMTQSPSSLSASVGDRVTITCRASQNINNFLHWYQQKPGNAPKLLIYAASTLQSGVPSRFSGSGSGTDFTLTISSLQPEDFATYYCQQSYSTPGGTFGGGTKVEIK |  | 23 µg/ml | ≥ 25 µg/ml |
| COV_2077 (antibody, V domains shown, human IgG1) VH: QVQLQESGPGLVKPSETLSLTCTVSGGSISSYSWSWIRQPPGKGLEWIGYIYYSGSTNYNPSLKSRVTISVDTSKNQFSLKLSSVTAADTAVYYCARESMGRYSLELRQPESAFDYWGRGTLVTVSS VL: not shown | no binding | ≥ 25 µg/ml | ≥ 25 µg/ml |
| COV_2134 (antibody, V domains shown, human IgG1) VH: EVQLVESGGGVVQPGRSLRLSCAASGFIFSSYGMYWVRQAPGKGLEWVAVIWYDGSNKYYADSVKGRFTISRDNSKNTLYLQMNSLRAEDTAVYYCARDLSSSSGWDDYYYYYGMDVWGQGTTVTVSS VL: not shown |  | 16.1 µg/ml | ≥ 25 µg/ml |
| COV_2032 (antibody, V domains shown, human IgG1) VH: EVQLVESGGGLVQPGGSLRLSCAASGFTFTTYWMHWVRQAPGKGLVWVSRIKTDGSSTNYADSVKGRFTISRDNAKNMLYLQMNSLRAEDTAVYYCAREGPVSIVYFDYWGQGTLVTVSS VL: not shown | no binding |  |  |
| COV_1144 (antibody, V domains shown, human IgG1) VH: EVQLVESGGGLVQPGGSLRLSCAASGFTFRSFWMSWVRQAPGKGLEWVANIKEDASEKHYVDPVKGRFTISRDNAKNSLYLQLNSLRAEDMAVYYCARVGRGYCTNGLCYTAFEYWGQGTLVTVSS VL: DIQMTQSPSSLSASVGDRVTITCRTSQSISNYLNWYQQKPGKAPKLLIYAASSLQSGVPSRFSGSGSGTDFTLTISSLQPEDFATYYCQQSYSTAWTFGQGTKVEIRR | no binding | ≥ 25 µg/ml | ≥ 25 µg/ml |
